± gives the standard deviation of the averaged measurements.
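Also: PSI is a weighted mean of sequencing reads over stability bins, variants kept only with over 10 reads, mCherry proximal and sfGFP distal, peptide attached via GGGS linker.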

The test system of the data set is Saccharomyces cerevisiae. In words: protein stability index of tFT-peptide fusion (C-terminal peptide) (PSI (0-1 scale)); higher = more stable (slower turnover). As to conditions: genetic background: wild type; temperature: 30 C. The method, then:
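Multiplexed protein stability (MPS) profiling in S. cerevisiae. Random 12-aa peptides (tFT-X12 library) are fused to the C-terminus of a sfGFP-mCherry tandem fluorescent timer, after mCherry and a GGGS linker. Cells are FACS-sorted into 8 mCherry/sfGFP bins and deep-sequenced. The protein stability index (PSI) is the read-weighted bin average, scaled from 0 (unstable) to 1 (stable). Only peptides with >10 reads are reported; cells were grown at 30 °C in SC-His with glucose.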
Take GRLPAYIHATRA: the protein stability index stood at 0.63128 ± 0.00047.

For the sequence GRLSPRRPRLLV, the protein stability index amounted to 0.645 ± 0.024.

GRPYCISASPPH registered a protein stability index of 0.706 ± 0.0075. Under GRQTEENRKRRV stands 0.7 ± 0.037; under GRRGRSASRIRA, 0.76 ± 0.14.

GRRMGHQLGAGA came in with a protein stability index of 0.684 ± 0.039.

Consider GRRMRGAEKQKK, for which the protein stability index stood at 0.829 ± 0.16. As to GRRPDEQRQTIG, the protein stability index amounted to 0.677 ± 0.0071. GRRQGKRRIGRK displayed a protein stability index of 0.652 ± 0.036. Consider GRRTNLCERLAL, for which the protein stability index worked out at 0.722 ± 0.042.

With GRSAGGTGAPSR, the protein stability index turned out to be 0.699 ± 0.022. GRSAVVMCFHAG had a protein stability index of 0.697 ± 0.018.

GRSAYRESGRRV: the protein stability index came out at 0.675 ± 0.04. In the case of GRSCAFCRVSRG, the protein stability index was determined as 0.721 ± 0.083. GRSGGGTGAPSR had a protein stability index of 0.637 ± 0.061. In the case of GRSPEIGPHIVN, the protein stability index was 0.699 ± 0.014. The result for GRVGLRGRPGPP reads 0.716 ± 0.12; that for GRVRAKTETSNS, 0.669 ± 0.028. As for GRVSGDRFIVIV, the protein stability index was determined as 0.572 ± 0.0008. GRVVGDGRSVGV returned a protein stability index of 0.683 ± 0.01. Turning to GSACGSSYKWQM, the protein stability index stood at 0.614 ± 0.068. As for GSAGPWSFVGDP, the protein stability index worked out at 0.702 ± 0.085.

Regarding GSCLLCGACGCR, the protein stability index came to 0.692 ± 0.061. GSCSGTVLGGSV gave a protein stability index of 0.626 ± 0.024.

With GSCVGASRGWLV, the protein stability index amounted to 0.727 ± 0.068. Sequence GSEISTRGVGRR displayed a protein stability index of 0.6647 ± 0.0013. Sequence GSFVLPLIYIHN showed a protein stability index of 0.499 ± 0.0025. Take GSGGRGTVCSEG: the protein stability index stood at 0.652 ± 0.015. Under GSGPPVGNGLIV stands 0.7169 ± 0.0027.

Regarding GSGRGGWRRGER, the protein stability index was determined as 0.707 ± 0.042. The sequence GSIRFVIFLTRL returned a protein stability index of 0.587 ± 0.12. GSLIVAARGVAG registered a protein stability index of 0.681 ± 0.024. The result for GSLLSNVPPRIR reads 0.706 ± 0.013; that for GSQRAHRQAAHD, 0.683 ± 0.077. Sequence GSQVGVRWGRFG registered a protein stability index of 0.675 ± 0.0079.

GSRGGPGGEAAG: the protein stability index worked out at 0.652 ± 0.019. Under GSRRSWWVLCLG stands 0.485 ± 0.072. Sequence GSRSLISLRTGA showed a protein stability index of 0.604 ± 0.037. GSSHLRFRGMEG gave a protein stability index of 0.614 ± 0.02. In turn, GSSTINRVDLKR came in with a protein stability index of 0.662 ± 0.015. GSSYRKNDRQEK came in with a protein stability index of 0.723 ± 0.048. Regarding GSVFWVCGFFRV, the protein stability index was found to be 0.559 ± 0.034. The sequence GSVGDASYAAVW had a protein stability index of 0.819 ± 0.034. For GSVGQNLCPGSI, the protein stability index amounted to 0.667 ± 0.031.

GSVGSRIFLVHV: the protein stability index stood at 0.602 ± 0.086. For the sequence GSVMGRRTGAFV, the protein stability index stood at 0.653 ± 0.041. GSVRSLARFCVF yielded a protein stability index of 0.499 ± 0.072. As to GSVTLTLLRPPS, the protein stability index is 0.753 ± 0.086. Sequence GSYSIVDRTPLF returned a protein stability index of 0.5679 ± 0.005.

GSYVPPVVLLYK: the protein stability index was found to be 0.647 ± 0.0095. GTDWRDKADLRG showed a protein stability index of 0.7071 ± 0.0046. Sequence GTEKRDSDKIIL displayed a protein stability index of 0.68 ± 0.086. As for GTGSRFRCLERS, the protein stability index was 0.739 ± 0.031. The result for GTLFKEGSRVTL reads 0.665 ± 0.027. The result for GTRAGGGWSCES reads 0.711 ± 0.02; that for GTRGLDTPPGRD, 0.663 ± 0.067; that for GTSPGREFYWHK, 0.702 ± 0.033.

GTTHHRRKPSYL displayed a protein stability index of 0.725 ± 0.05. GTTLGEVVCGVL displayed a protein stability index of 0.683 ± 0.045. Turning to GTVDGILLVFVE, the protein stability index amounted to 0.593 ± 0.026. For the sequence GVAPGRSRRKRG, the protein stability index is 0.67 ± 0.018. GVCSWLVFGGWA came in with a protein stability index of 0.684 ± 0.056. Turning to GVDAGGVFSRLC, the protein stability index worked out at 0.639 ± 0.018. GVDGRWGGEMGR: the protein stability index was determined as 0.747 ± 0.097.

The values above are taken from the supplement of paper PMC10724198.
